One test deals with HLA-A*68:02. The experiment in a line: IEDB peptide-MHC binding, purified MHC/competitive/radioactivity; filed as Kd, often an IC50 or EC50 that approximates it; ≥ and ≤ were set here for values at or beyond the usual limits of such assays.
The target of the next test is HLA-B*40:02. The test is described as above.
The next test concerns the target HLA-B*44:02. The description is as above.
In another test the target is HLA-B*45:01. The description is as above.
For the next test, the target named is HLA-B*44:03. The description is as above.
For the next test, the target named is HLA-B*40:01. The description is as above.
The target of the next test is HLA-B*18:01. The test is described as above.
The target in a further test is HLA-A*02:03. The description is as above.
In a further test the target is HLA-A*02:01. Described as above.
The target in the next test is HLA-A*02:06. Described as above.
A further test deals with HLA-A*02:02. The test is described as above.
For a further test, the target named is HLA-A*26:01. The description is as above. The conditions noted are these: source organism: Dengue virus 3 Martinique/1243/1999.
The target of a further test is HLA-A*31:01. The experiment in a line: IEDB peptide-MHC binding, purified MHC/competitive/fluorescence; filed as Kd, often an IC50 or EC50 that approximates it; ≥ and ≤ were set here for values at or beyond the usual limits of such assays.
Test [1] deals with HLA-A*03:01. The test is described as above.
A further test has as its target HLA-A*02:12. In words: IEDB peptide-MHC binding, purified MHC/direct/fluorescence; filed as Kd, often an IC50 or EC50 that approximates it; ≥ and ≤ were set here for values at or beyond the usual limits of such assays. The conditions noted are these: source organism: Bacillus cereus 03BB108.
In test [2] the target is HLA-A*03:01. The test is described as above. To be noted: source organism: Bacillus mycoides.
[3] abbreviates: source organism: Lymphocytic choriomeningitis virus (strain Armstrong).
[4] abbreviates: source organism: Trypanosoma cruzi.
Setting [5] is: source organism: Mammarenavirus brazilense.
Where [6] appears, read: source organism: Mammarenavirus lassaense.
The mark [7] stands for this setting: source organism: Dengue virus 3 Martinique/1243/1999.
Setting [8] is: source organism: Bacillus anthracis str. Tsiankovskii-I.
The mark [9] stands for this setting: source organism: Lassa virus Josiah.
Where [10] appears, read: source organism: Desulfitobacterium hafniense DCB-2.
[11] abbreviates: source organism: Mammarenavirus guanaritoense.

The source of these data is the Immune Epitope Database (IEDB).

On to MTTIGIVLL, for which, in the test with HLA-A*68:02 (source organism: Dengue virus 2 Peru/IQT2913/1996), the Kd (as a rule, a measure of binding affinity in units of concentration) was found to be 50.1 nM.

Regarding SENDWFSCM, the Kd was 164 nM with HLA-B*40:02 (setting [3]); 21.1 nM with HLA-B*44:02 (setting [3]); 117 nM in the test with HLA-B*45:01 (setting [3]); 22.2 nM with HLA-B*44:03 (setting [3]); 1400 nM in the test with HLA-B*40:01 (setting [3]); 185 nM with HLA-B*18:01 (setting [3]).

DVSRPTTVV: the Kd with HLA-A*02:03 (setting [4]) was at least 38100 nM; with HLA-A*02:01 (setting [4]), at least 35900 nM; with HLA-A*02:06 (setting [4]) it was 12800 nM; with HLA-A*02:02 (setting [4]), 16300 nM; with HLA-A*68:02 (setting [4]), 37.7 nM.

As for EELSTLYEAL, the Kd was 121 nM with HLA-B*40:02 (setting [5]); 1890 nM in the test with HLA-B*44:02 (setting [5]); 2080 nM with HLA-B*45:01 (setting [5]); 595 nM with HLA-B*44:03 (setting [5]); 1260 nM in the test with HLA-B*40:01 (setting [5]); 371 nM in the test with HLA-B*18:01 (setting [5]).

On to RLLPSLLLLL, for which the Kd was determined as 0.915 nM with HLA-A*02:03 (setting [4]), 0.585 nM with HLA-A*02:06 (setting [4]), 0.28 nM with HLA-A*02:02 (setting [4]) and 7220 nM with HLA-A*68:02 (setting [4]).

Take SEAQMSIQLI: the Kd stood at 936 nM with HLA-B*40:02 (setting [6]); 30.4 nM in the test with HLA-B*44:02 (setting [6]); 997 nM in the test with HLA-B*45:01 (setting [6]); 235 nM with HLA-B*44:03 (setting [6]); 1800 nM with HLA-B*40:01 (setting [6]); 13900 nM with HLA-B*18:01 (setting [6]).

In the case of CSAVPVHWV, the Kd with HLA-A*68:02 (setting [7]) came out at 11.1 nM.

Take ETYQLWTAL: the Kd with HLA-A*26:01 is 181 nM; in the test with HLA-A*68:02 (setting [7]), 3.39 nM.

As to PDYKRPGVS, the Kd in the test with HLA-B*40:02 (setting [6]) was 17600 nM; with HLA-B*44:02 (setting [6]), at least 77900 nM; with HLA-B*45:01 (setting [6]), at least 77700 nM; in the test with HLA-B*44:03 (setting [6]) it was at least 54300 nM; with HLA-B*40:01 (setting [6]), at least 33800 nM; with HLA-B*18:01 (setting [6]), at least 77500 nM.

Regarding IISYFIFNR, the dissociation constant Kd with HLA-A*31:01 (setting [8]) turned out to be 22.5 nM; with HLA-A*03:01 [1] (setting [8]) it was 304 nM.

Regarding YLISIFLHLV, the dissociation constant Kd came out at 1.72 nM with HLA-A*02:03 (setting [9]), 8.6 nM with HLA-A*02:06 (setting [9]), 2.73 nM with HLA-A*02:02 (setting [9]) and 167 nM with HLA-A*68:02 (setting [9]).

Take EEVPNIIHEA: the Kd with HLA-B*40:02 (setting [5]) is 790 nM; with HLA-B*44:02 (setting [5]), at least 26900 nM; with HLA-B*45:01 (setting [5]), 269 nM; with HLA-B*44:03 (setting [5]) it was 16000 nM; with HLA-B*40:01 (setting [5]) it was at least 20400 nM; in the test with HLA-B*18:01 (setting [5]), 12400 nM.

Consider ALFAGDLYR, for which the Kd worked out at 3.9 nM with HLA-A*31:01 (setting [10]) and 12.9 nM in the test with HLA-A*03:01 [1] (setting [10]).

Take SMEAEMIQL: the Kd with HLA-A*02:03 (source organism: Homo sapiens) was 2380 nM; in the test with HLA-A*02:01 (source organism: Homo sapiens), 39.8 nM; with HLA-A*02:02 (source organism: Homo sapiens), 70 nM; in the test with HLA-A*68:02 (source organism: Homo sapiens) it was at least 52500 nM.

Take GMFDWESMK: the results for the Kd in the test with HLA-A*02:12 and with HLA-A*03:01 [2] were 744 nM and 208 nM, respectively.

Take GEQVDLGPVL: the Kd with HLA-B*40:02 (setting [11]) was 52.6 nM; with HLA-B*44:02 (setting [11]) it was at least 32700 nM; with HLA-B*45:01 (setting [11]), 1900 nM; with HLA-B*44:03 (setting [11]), at least 43500 nM; with HLA-B*40:01 (setting [11]), 9030 nM; with HLA-B*18:01 (setting [11]), 12100 nM.
